{"source": "patent US20110271397", "about": "“MOLECULAR CLOCK MECHANISM OF HYBRID VIGOR” (published 2011)", "key": {"[1]": {"biological_target": "T1, CCA1 (Arabidopsis thaliana, UniProt P92973 P92973:1-608)", "T1 sequence (P92973 whole entry, one chain of several)": "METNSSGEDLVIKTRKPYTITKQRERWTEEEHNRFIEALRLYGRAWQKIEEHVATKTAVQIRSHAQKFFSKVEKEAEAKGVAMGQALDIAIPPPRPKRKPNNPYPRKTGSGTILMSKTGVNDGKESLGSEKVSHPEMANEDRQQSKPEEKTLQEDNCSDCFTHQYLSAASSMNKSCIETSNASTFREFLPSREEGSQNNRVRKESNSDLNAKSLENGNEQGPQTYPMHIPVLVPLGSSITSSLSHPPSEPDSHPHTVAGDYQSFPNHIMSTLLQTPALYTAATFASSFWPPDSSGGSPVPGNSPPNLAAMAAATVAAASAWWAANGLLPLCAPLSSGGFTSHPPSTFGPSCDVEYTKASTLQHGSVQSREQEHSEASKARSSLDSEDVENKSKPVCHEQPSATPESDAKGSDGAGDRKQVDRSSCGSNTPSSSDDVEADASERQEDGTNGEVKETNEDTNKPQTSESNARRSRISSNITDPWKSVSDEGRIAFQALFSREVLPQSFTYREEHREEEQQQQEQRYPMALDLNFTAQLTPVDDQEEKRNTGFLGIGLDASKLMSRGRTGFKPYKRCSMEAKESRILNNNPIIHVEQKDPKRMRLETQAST", "assay": "EMSA; 10 fmol rCCA1 and 10 fmol probe; cold competitor 5-50x", "conditions": "tags: full-length cDNA in pET300/NT-DEST, E. coli Rosetta-gami B; label: 32P", "text": "(§1) The cDNA was cloned into pDONR221 and validated by sequencing. The resulting insert was transferred by recombination into pET300/NT-DEST expression vector (Invitrogen Corp., Carlsbad, Calif.) and expressed in Escherichia coli Rosetta-gami B competent cells (Novagen, Madison, Wis.). Recombinant CCA1 protein was purified and subjected to EMSA in 6% native polyacrylamide gels using rCCA1 (10 fmoles) and ³²P-labeled double-stranded oligonucleotides (10 fmoles, Table 5). The cold probe (Cp) concentrations were 0 (-), 50 (5×), 100 (10×), 200 (20×), and 500 (50×) fmoles, respectively, according to a published protocol available at http://www.natureprotocols.com/2009/01/08/the_electrophoretic_mobility_s_{—}1.php."}, "[2]": {"biological_target": "T1, CCA1", "assay": "EMSA; 10 fmol rCCA1 and 10 fmol probe; cold competitor 5-50x; text prints PORE for PORB", "conditions": "tags: full-length cDNA in pET300/NT-DEST, E. coli Rosetta-gami B; label: 32P", "text": "as §1"}}, "data": [{"binder": "GWD3 promoter EE oligo (dsDNA) DNA 1: CACAAACAAAAAAATCTCTTATCAC DNA 2: GTGATAAGAGATTTTTTTGTTTGTG", "values": [{"measurement": "binding result", "setting": "[1]", "value": "binds"}]}, {"binder": "TOC1 promoter EE oligo (dsDNA) DNA 1: ACACAAAAAAAATATCTAATCACAG DNA 2: CTGTGATTAGATATTTTTTTTGTGT", "values": [{"measurement": "binding result", "setting": "[1]", "value": "binds"}]}, {"binder": "PORB promoter EE oligo (dsDNA) DNA 1: ATTAAAATAAAATATCTAAGGAGAA DNA 2: TTCTCCTTAGATATTTTATTTTAAT", "values": [{"measurement": "binding result", "setting": "[2]", "value": "binds"}]}, {"binder": "DPE1 promoter EE oligo (dsDNA) DNA 1: AGAGCAACAAAATATCTCGACTGTT DNA 2: AACAGTCGAGATATTTTGTTGCTCT", "values": [{"measurement": "binding result", "setting": "[1]", "value": "binds"}]}, {"binder": "PORA promoter EE oligo (dsDNA) DNA 1: TATACATTAAAATATCTACTGACAG DNA 2: CTGTCAGTAGATATTTTAATGTATA", "values": [{"measurement": "binding result", "setting": "[1]", "value": "binds"}]}]}
